Data published in the supplement of paper PMC7125110.
± gives the standard error. Variants at the floor of the assay were thinned out.

B1: glmS ribozyme (parent)
chain: AUAAAAGCGCCAGAACUACAGAAAUGUAGUUGACGAGGAGGAGGUUUAUCGAAUUUUCGGCGGAUGCCUCCAAA

Variants of: B1
Assay: self-cleavage kobs at 2500 uM GlcN6P; higher = faster cleavage; RNA array
Conditions: with glucosamine-6-phosphate
Outline: (§1)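 Ribozyme variants carrying barcodes were transcribed in situ on sequenced MiSeq chips by E. coli RNA polymerase and tracked at 37 °C with a hybridised Cy3 probe. They were exposed to 40 μM to 10 mM glucosamine-6-phosphate in HEPES/KCl/Mg(OAc)2 buffer. kobs came from exponential decay fits of normalised per-tile medians, and kcat and KM from weighted Michaelis–Menten fits.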

| Variant | self-cleavage kobs at 2500 uM GlcN6P [s⁻¹] |
| --- | --- |
| C8A G13U U56G A64G | < 1e-05 |
| G7C G44C C50U G62A C67U C70U | < 1e-05 |
| C8A G40C C67A | < 1e-05 |
| A39U G66A C70G | 0.000771 ± 0.00023 |
| G38U C50G G63C | 7.85e-05 ± 2.7e-05 |
| A14G G29A G44A | 6.19e-05 ± 2.1e-05 |
| A12G G32U C34U A53U | < 1e-05 |
| A15C G32A U69A | 0.000103 ± 3.2e-05 |
| U31A A52U | 2.52e-05 ± 1.1e-05 |
| A15C G35U C70G | < 1e-05 |
| G37C U55A A64G | 4.29e-05 ± 1.2e-05 |
| G7C C10A C16G C61A | < 1e-05 |
| C11A A33G G35U A52G | < 1e-05 |
| G13U G38A U55A A64U | < 1e-05 |
| A15G G38U A52U | < 1e-05 |
| C34A A48U C68A C71G | < 1e-05 |
| C16A G43U A53U G60A C68A | < 1e-05 |
| C11A A14C A42C U55C A64G | < 1e-05 |
| G13A U47A G66A | 0.000103 ± 2.2e-05 |
| G9A A39G A52C | < 1e-05 |
| A15U C16U U49A C70G | 4.48e-05 ± 1.7e-05 |
| C8A G13C U46G U56A U69C C70G | < 1e-05 |
| A12U C16G U30C | 0.000813 ± 0.00031 |

| Variant | self-cleavage kobs at 2500 uM GlcN6P [s⁻¹] |
| --- | --- |
| A6C A12G G37A | < 1e-05 |
| A39G U55G A64G | 0.00731 ± 0.0025 |
| U30A U47C | 0.000476 ± 9.7e-05 |
| A15U G40A A52C G66U | < 1e-05 |
| A14U A33G A52G C68U C70G C71A | 0.000285 ± 9.7e-05 |
| A36C G59U G60U C70G | < 1e-05 |
| A15C A23C | 0.00398 ± 0.0014 |
| U31G C58A C67G | 6.38e-05 ± 2e-05 |
| A14U G51U G60U | < 1e-05 |
| C10A C11G G40U C50G A52U | < 1e-05 |
| A53C U55G G66A | 0.00165 ± 0.00032 |
| A14C A33G C34G G37C G60C | < 1e-05 |
| G40A U55C C58G | < 1e-05 |
| C11G G35A C61A | < 1e-05 |
| U31G G44C G59C | < 1e-05 |
| C16U G40A U69C | 3.52e-05 ± 1.7e-05 |
| C8U G9U A15U G44U | < 1e-05 |
| G9A A12G U54A C58G C61G C70U | 0.000354 ± 0.00012 |
| G7A C11U U45C | < 1e-05 |
| C11U U31A G32A G38A C70G | 7.58e-05 ± 2.6e-05 |
| U31G U56A G66U | 7.04e-05 ± 1.3e-05 |
| G13C U30C C71G | 4.16e-05 ± 2.1e-05 |
| G43A U47G C61G | < 1e-05 |

| Variant | self-cleavage kobs at 2500 uM GlcN6P [s⁻¹] |
| --- | --- |
| A12C G38C C71U | < 1e-05 |
| C19A A53C C71A | 0.000384 ± 0.00012 |
| U45C U56C G63A | < 1e-05 |
| C19A C34A | < 1e-05 |
| G32U A64G G66A | 0.000236 ± 5.9e-05 |
| C11G U47A C50G C70G | 0.000352 ± 8.9e-05 |
| G32U G59A C68G | 0.000713 ± 0.00028 |
| G13C U31A A53G | 0.000107 ± 3.6e-05 |
| A15G U56G C58U | 3.75e-05 ± 1.4e-05 |
| A6C G40A U46G G51U | < 1e-05 |
| C16U U57A G59C | < 1e-05 |
| A6C A15G U30C | 2.76e-05 ± 1.3e-05 |
| C11U A15G G37C U47C U69G | 0.000136 ± 5.1e-05 |
| A6G A12C U55C C67U | < 1e-05 |
| C8A C58A A64C | < 1e-05 |
| G43C A53U C58G A64G | < 1e-05 |
| C16U U30C G35C U45A U55G G59U | < 1e-05 |
| G35U U54C C58A | < 1e-05 |
| G13U A48U G59C G62U | < 1e-05 |
| G43C A48G | < 1e-05 |
| C8A G41A G44U | < 1e-05 |
| A6C A42U G59U | < 1e-05 |
| A6U G44A A48U G63A U65C | < 1e-05 |

| Variant | self-cleavage kobs at 2500 uM GlcN6P [s⁻¹] |
| --- | --- |
| G32U G41A C58U | 9.05e-05 ± 2.6e-05 |
| G29C G51U C67G | 5.96e-05 ± 2.8e-05 |
| A33C C50U U56C | < 1e-05 |
| A14U U54C U65G | 0.000411 ± 0.00014 |
| U49G C61U C67G | < 1e-05 |
| C10A C11U C70A | 0.000126 ± 4.3e-05 |
| C10A U47A C70A | 0.000334 ± 0.00015 |
| G35U G66U C70U | < 1e-05 |
| A6U A14G U69G | 0.000146 ± 3.5e-05 |
| G40A U65C | 0.000394 ± 0.00015 |
| C10A G29A A33G A48U | < 1e-05 |
| G40A U47A U49A C70A | < 1e-05 |
| G35A C50A U55C G62A A64U | < 1e-05 |
| A14C C16U C68G | 9.4e-05 ± 2.8e-05 |
| G29U U31A U69G C70A | 8.63e-05 ± 2.8e-05 |
| G32U G38U C67U | < 1e-05 |
| G41A C70A | 0.000253 ± 5.4e-05 |
| G9C U46A C71U | < 1e-05 |
| G41A G63U C70U | < 1e-05 |
| A15G G44U A64U U65G | < 1e-05 |
| G9C U49A U54A C67A | < 1e-05 |
| C11U A15G G43A C67G | 0.000114 ± 3.9e-05 |
| G13U C34U A39G G62A | < 1e-05 |

| Variant | self-cleavage kobs at 2500 uM GlcN6P [s⁻¹] |
| --- | --- |
| U55C G59U | 3.25e-05 ± 1.3e-05 |
| A12G C61U C67U C68G | 5.12e-05 ± 2.3e-05 |
| G32U G66A C70A | 0.00086 ± 0.00036 |
| G9U U31C G43C C67U | < 1e-05 |
| A5U C10G A42U U57C C70A | < 1e-05 |
| G13C G43C U57G | < 1e-05 |
| A15U G43U A53U C68U | 8.35e-05 ± 3.5e-05 |
| G51U A52U U54G U55C | < 1e-05 |
| A12C U45A C67G | 0.000527 ± 0.00016 |
| C34A U49G | < 1e-05 |
| C50U A64U C71U | < 1e-05 |
| A12G G43C U45C C61G | < 1e-05 |
| G13C C61A C68G | < 1e-05 |
| G37C C50U U69G | 6.01e-05 ± 2.6e-05 |
| A39G G44U A53C | 0.000157 ± 4.5e-05 |
| A15U A39C U45A | 0.000454 ± 0.00014 |
| G35U U49C C50U C58G C61U | < 1e-05 |
| C10U A33U G41U U49C G62C | < 1e-05 |
| C16G U30G A39U | 4.31e-05 ± 2e-05 |
| C11U A14C A39U U56C | 7.9e-05 ± 2.4e-05 |
| A14U G40C G66C | 9.83e-05 ± 2.2e-05 |
| A12U A33U G37U U56A | < 1e-05 |
| G13C G41A U45A C70U | 8.8e-05 ± 2e-05 |

| Variant | self-cleavage kobs at 2500 uM GlcN6P [s⁻¹] |
| --- | --- |
| G7A A15G G29A A36G A52G | < 1e-05 |
| U45A U46A | 0.0043 ± 0.0021 |
| G29U A33C G44C | 0.000325 ± 0.00014 |
| G9C A42U G44U | < 1e-05 |
| G9C C16A C34A G44C A64G | < 1e-05 |
| G13C C34A C67U | < 1e-05 |
| G35C U49G G62U C71G | < 1e-05 |
| G9U A14G C61A A64G C70G | 6.76e-05 ± 2.1e-05 |
| A39G A53C C70A | 0.000143 ± 4.2e-05 |
| A33C G40A A52U C61G | < 1e-05 |
| A6U A14U U31C A42G A52C A64C | < 1e-05 |
| G9C C11A G63C | < 1e-05 |
| G9U G13U A14G G37A G60C C71U | < 1e-05 |
| G29U G44U G59U C67A | < 1e-05 |
| C34U C50U | < 1e-05 |
| G40C U47A U65G | 0.000652 ± 0.00017 |
| A6G C16G U54C C61A | < 1e-05 |
| C11A G29U A33C G63C | < 1e-05 |
| C16U G41A C67U | < 1e-05 |
| C8A A33C U45C G59A | < 1e-05 |
| G29C G62C U65A | < 1e-05 |
| G13A A33C C70U | < 1e-05 |
| G59U G66C | < 1e-05 |

| Variant | self-cleavage kobs at 2500 uM GlcN6P [s⁻¹] |
| --- | --- |
| G13U U31G G37C A48C | < 1e-05 |
| A6U C67G C71A | < 1e-05 |
| C11U C16U A53C C68A C70G | < 1e-05 |
| G37A C50G U54C | 0.000123 ± 4.8e-05 |
| G13C U31G A36G U46A C70G | < 1e-05 |
| G40U G51C C58U G60U G66U | < 1e-05 |
| A14U G35C U65G G66U U69G | < 1e-05 |
| A6G A42U A48C U54C U69A | < 1e-05 |
| G37C A42C A48C A64U | < 1e-05 |
| A52U G59U A64U C70U | < 1e-05 |
| G7U G41C C50U | < 1e-05 |
| G29C A64G G66U | 4.43e-05 ± 1.8e-05 |
| G41U C58A A64G U69A | < 1e-05 |
| A6G G43C C58G | < 1e-05 |
| C8U C34U G37A U54C | < 1e-05 |
| G43A G62C A64U C70G | < 1e-05 |
| A39G G40U U54A | 0.000126 ± 6.2e-05 |
| G7C G13U G43C G66U | < 1e-05 |
| A15G G37U C61A C68A C70G | 4.28e-05 ± 2e-05 |
| G32A U57C | 5.22e-05 ± 1.9e-05 |
| A53G G63U C71A | < 1e-05 |

Variants of: B1
Assay: self-cleavage kobs at 10000 uM GlcN6P; higher = faster cleavage; RNA array
Conditions: with glucosamine-6-phosphate
Outline: as §1

| Variant | self-cleavage kobs at 10000 uM GlcN6P [s⁻¹] |
| --- | --- |
| U31A A52U | 8.67e-05 ± 1.5e-05 |
| G37C U55A A64G | 6.99e-05 ± 1.4e-05 |
| C11A A33G G35U A52G | < 1e-05 |
| C34A A48U C68A C71G | < 1e-05 |
| G13A U47A G66A | 0.000143 ± 2.8e-05 |
| U30A U47C | 0.000396 ± 9.1e-05 |
| A15C A23C | 0.00556 ± 0.0014 |
| G13C U31A A53G | 0.000294 ± 5.7e-05 |
| G40A U65C | 0.000296 ± 6.1e-05 |
| G35A C50A U55C G62A A64U | < 1e-05 |
| G41A C70A | 0.00019 ± 2.6e-05 |
| G41A G63U C70U | < 1e-05 |
| C11U A15G G43A C67G | 0.000119 ± 3.5e-05 |
| U55C G59U | 2.55e-05 ± 1.2e-05 |
| A12G G43C U45C C61G | < 1e-05 |
| C16G U30G A39U | 0.000103 ± 2.8e-05 |
| A14U G40C G66C | 0.00012 ± 2.4e-05 |
| A39G A53C C70A | 0.000165 ± 4.3e-05 |
| C11U C16U A53C C68A C70G | < 1e-05 |
